Measured values published in patent US20130177579A1 (BIOALLIANCE C V, published 2013).

Legend:
[1] = target: T1, human transferrin receptor expressed by normal human cells (RBC, PMN, lymphocytes, monocytes, platelets, … (human, UniProt P02786 1-760)); experiment: FACS, lymphocytes, donor D016, 1x
T1 construct: The assay is whole-cell FACS on normal donor cells; also called TfR on normal cells
Method: (§1) The hyper-immuned serum (Hyp-serum) or the corresponding cell marker antibodies for certain cell types were included as positive controls.
(§2) 1×10⁵ cells were seeded in each well of a v-bottomed 96-well plate and incubated with 50 μl of hybridoma culture supernatant at 1× and 10× dilution, or isotype control antibody mouse IgM, κ (BD™, Cat. No. 557275) at concentration of 1 μg/ml. A 300× dilution of human cell hyper-immune serum was used as binding positive control for all cell types. PE-conjugated anti-human CD41a (Southern Biotech™, Cat. No. 9391-09) was used as a positive control for staining human platelets. Anti-sialyl Lewis x antibody (Millipore™, Cat. No. MAB2096) was used as a positive control for staining human PMN. Anti-human CD31 (Hycult™, Cat. No. HM2039) was used as a positive control for staining HUVEC. After 30 minutes incubation at 4° C., cells were washed twice with 200 μl FACS buffer (1×PBS containing 1% FBS), stained with 50 μl of 1 μg/ml goat F(ab′)2-anti-mouse IgG(H+L)-PE (Southern Biotech™, Cat. No. 1032-09) or 1 μg/ml goat F(ab′)2-anti-mouse IgM(H+L)-PE (Southern Biotech™, Cat. No. 1022-09) in FACS buffer. After 30 minutes of incubation at 4° C., cells were washed twice with FACS buffer and analyzed by flow cytometry (BD LSR, BD Life Sciences).

[2] = target: T1, human transferrin receptor expressed by …; experiment: FACS, RBC, donor D102, 1x
Method: as §1, §2

[3] = target: T1, human transferrin receptor expressed by …; experiment: FACS, monocytes, donor D102, 1/10x
Method: as §1, §2

[4] = target: T1, human transferrin receptor expressed by …; experiment: FACS, RBC, donor D014, 1x
Method: as §1, §2

[5] = target: T1, human transferrin receptor expressed by …; experiment: FACS, platelets, donor D014, 1x
Method: as §1, §2

[6] = target: human transferrin receptor expressed by nonhematopoietic cancer cells (human) (UniProt P02786); experiment: FACS, Kato III cells, 1/5X
[7] = target: T1, human transferrin receptor expressed by …; experiment: FACS, RBC, donor D005, 1/10x
Method: as §1, §2

[8] = target: T1, human transferrin receptor expressed by …; experiment: FACS, platelets, donor D102, 1x
Method: as §1, §2

[9] = target: T1, human transferrin receptor expressed by …; experiment: FACS, HUVEC, 1x
Method: as §1, §2

[10] = target: T1, human transferrin receptor expressed by …; experiment: FACS, lymphocytes, donor D014, 1x
Method: (§3) Preparation of PBMC and PMN: The whole blood was diluted with an equal volume of PBS and mixed with 1/10 volume of 15% Dextran solution. […] After centrifugation at 2200 rpm for 15 min (rotor: SORVALL, PN11788 and centrifuge: SORVALL, RT7), PBMC concentrated in the interface, were collected and washed with large volumes of FACS buffer (2% FBS in PBS) for future use. The PMN-rich pellet was collected, from which residual RBC was removed by hypotonic lysis in 0.2% NaCl.
as §2

[11] = target: human transferrin receptor expressed by nonhematopoietic cancer cells (human) (UniProt P02786); experiment: cell-based or functional assay
[12] = target: T1, human transferrin receptor expressed by …; experiment: FACS, lymphocytes, donor D102, 1x
Method: as §3, §2

[13] = target: T1, human transferrin receptor expressed by …; experiment: FACS, platelets, donor D016, 1x
Method: as §1, §2

[14] = target: T1, human transferrin receptor expressed by …; experiment: FACS, PMN, donor D014, 1x
Method: as §1, §2

[15] = target: T1, human transferrin receptor expressed by …; experiment: FACS, RBC, donor D005, 1x
Method: as §1, §2

[16] = target: T1, human transferrin receptor expressed by …; experiment: FACS, PMN, donor D005, 1/10x
Method: as §3, §2

[17] = target: T1, human transferrin receptor expressed by …; experiment: FACS, platelets, donor D005, 1x
Method: as §1, §2

[18] = target: T1, human transferrin receptor expressed by …; experiment: FACS, monocytes, donor D005, 1x
Method: as §3, §2

[19] = target: T1, human transferrin receptor expressed by …; experiment: FACS, PMN, donor D016, 1x
Method: as §3, §2

T1 sequence (P02786 whole entry G142S): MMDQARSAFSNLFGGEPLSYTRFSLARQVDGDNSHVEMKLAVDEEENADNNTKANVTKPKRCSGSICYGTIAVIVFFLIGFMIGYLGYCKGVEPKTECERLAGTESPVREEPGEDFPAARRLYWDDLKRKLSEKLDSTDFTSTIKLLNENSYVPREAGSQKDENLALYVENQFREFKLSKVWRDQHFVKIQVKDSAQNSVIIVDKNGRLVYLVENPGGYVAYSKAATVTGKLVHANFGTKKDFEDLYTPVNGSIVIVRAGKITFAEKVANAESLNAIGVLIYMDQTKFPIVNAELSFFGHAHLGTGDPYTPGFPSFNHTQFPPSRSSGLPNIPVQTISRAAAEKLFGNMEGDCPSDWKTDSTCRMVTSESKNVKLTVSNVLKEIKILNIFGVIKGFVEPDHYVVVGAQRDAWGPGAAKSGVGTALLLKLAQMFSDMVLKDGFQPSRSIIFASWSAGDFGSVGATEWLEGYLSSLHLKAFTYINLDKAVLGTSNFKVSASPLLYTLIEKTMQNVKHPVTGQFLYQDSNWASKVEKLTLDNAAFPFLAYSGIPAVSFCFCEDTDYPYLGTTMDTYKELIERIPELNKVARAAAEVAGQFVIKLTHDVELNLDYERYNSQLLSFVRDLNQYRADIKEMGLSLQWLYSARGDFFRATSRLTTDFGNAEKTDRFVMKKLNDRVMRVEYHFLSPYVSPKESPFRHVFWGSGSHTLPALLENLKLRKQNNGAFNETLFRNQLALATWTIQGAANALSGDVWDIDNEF
Sequence of human transferrin receptor expressed by nonhematopoietic cancer cells (human) (P02786 whole entry G142S): as above

% positive cell binding [1]	% positive cell binding [2]	% positive cell binding [3]	% positive cell binding [4]	% positive cell binding [5]	MFI [6]	% positive cell binding [7]	% positive cell binding [8]	% positive cell binding [9]	% positive cell binding [10]	% positive cell binding [12]	% positive cell binding [13]	% positive cell binding [14]	% positive cell binding [15]	% positive cell binding [16]	% positive cell binding [17]	% positive cell binding [18]	% positive cell binding [19]	percentage of Annexin V positive and/or PI positive cells; COLO205; 1/2X (IgM 19.1) [11]	percentage of Annexin V positive and/or PI positive cells; COLO205; 1/6X (IgM 19.1) [11]	Binder	also measured
1%	< 1%	1%	1%	< 1%	97 MFI	< 1%	< 1%	2%	1%	< 1%	< 1%	< 1%	< 1%	1%	< 1%	4%	< 1%	–	–	antibody 55-31 (antibody, mouse IgM, V domains shown, Mouse IgM, kappa from a hybridoma; tested as hybridoma culture supernatant) VH: QVQLQQPGAELVKPGTSVKLSCKASGYNFTSYWINWVKLRPGQGLEWIGDIYPGSGSTNYNEKFKSKATLTVDTSSSTAYMQLSSLASEDSALYYCARSAYRYDWFAYWGQGTLVTVSA VL: DIQMTQSPASLSVSVGETVTITCRASENIYSNLAWYQQKQGKSPQLLVYAATNLADGVPSRFSGSGSGTQYSLKINSLQSEDFGSYYCQHFWGTPYTFGGGTKLEIKR	percentage of Annexin V positive and/or PI positive cells; DU145; 1/2X (IgM 19.5) [11]: 31%; percentage of Annexin V positive and/or PI positive cells; DU145; 1/6X (IgM 19.5) [11]: 35.4%; percentage of Annexin V positive and/or PI positive cells; DU145; 1/18X (IgM 19.5) [11]: 23.6%
< 1%	< 1%	4%	1%	< 1%	724 MFI	< 1%	< 1%	1%	< 1%	< 1%	< 1%	1%	< 1%	< 1%	< 1%	2%	< 1%	80.3%	25.2%	antibody 122-72 (antibody, V domains shown, Mouse IgM, kappa from a hybridoma; tested as hybridoma culture supernatant; Antibody 60-43 is said to have the same CDRs) VH: EVQLVESGGGLVQPKGSLKLSCAASGFTFNTYAMNWVRQAPGKGLEWVARIRSKSNNYATYYADSVKDRFTISRDDSQSMLYLQMNNLKTEDTAMYYCVAYGSRNYWGQGTTLTVSS VL: DIVMTQSPSSLTVTAGEKVTMSCKSSQSLLNSGNQKNYLTWYQQKPGQPPKLLIYWASTRESGVPDRFTGSGSGTDFTLTISSVQAEDLAVYYCQNDYSYPYTFGGGTKLEIKR	percentage of Annexin V positive and/or PI positive cells; COLO205; 1/18X (IgM 19.1) [11]: 18.6%; percentage of Annexin V positive and/or PI positive cells; DLD1; 1/2X (IgM 24.3) [11]: 42.2%; percentage of Annexin V positive and/or PI positive cells; DLD1; 1/6X (IgM 24.3) [11]: 38.6%; percentage of Annexin V positive and/or PI positive cells; DLD1; 1/18X (IgM 24.3) [11]: 37.1%; percentage of Annexin V positive and/or PI positive cells; H358; 1/2X (IgM 31.8) [11]: 70.8%; percentage of Annexin V positive and/or PI positive cells; H358; 1/6X (IgM 31.8) [11]: 70.1%; percentage of Annexin V positive and/or PI positive cells; H358; 1/18X (IgM 31.8) [11]: 63.9%; percentage of Annexin V positive and/or PI positive cells; Pan 02.03B; 1/2X (IgM 16.9) [11]: 31.5%; percentage of Annexin V positive and/or PI positive cells; Pan 02.03B; 1/6X (IgM 16.9) [11]: 20.5%; percentage of Annexin V positive and/or PI positive cells; Pan 02.03B; 1/18X (IgM 16.9) [11]: 20.5%; percentage of Annexin V positive and/or PI positive cells; SNU-16; 1/2X (IgM 30.0) [11]: 46.6%; percentage of Annexin V positive and/or PI positive cells; SNU-16; 1/6X (IgM 30.0) [11]: 43.5%; percentage of Annexin V positive and/or PI positive cells; SNU-16; 1/18X (IgM 30.0) [11]: 36.6%; percentage of Annexin V positive and/or PI positive cells; SU.86.86; 1/2X (IgM 12.1) [11]: 41.3%; percentage of Annexin V positive and/or PI positive cells; SU.86.86; 1/6X (IgM 12.1) [11]: 29.3%; percentage of Annexin V positive and/or PI positive cells; SU.86.86; 1/18X (IgM 12.1) [11]: 23.4%
1%	< 1%	2%	1%	< 1%	1250 MFI	< 1%	< 1%	1%	1%	< 1%	< 1%	< 1%	< 1%	< 1%	< 1%	2%	1%	50.9%	42.2%	antibody 6-90 (antibody, mouse IgM, V domains shown, Mouse IgM, kappa from a hybridoma; tested as hybridoma culture supernatant) VH: EVELQQFGIEMVKPGASVKISCKASGYIFTDYHMDWVRQSHGKSLEWIGDIDPKYDRVTYNQKFKGKASLTADKSSSTAYMELRSLTSEDTAVYYCAKTGAYGDYLAYWGQGTLVTVSA VL: DLVMTQTPLSLPVSLGDQASISCRSSQSLVHSDGNTYFYWYLQKPGQSPKLLIYKVSNRFSGVPDRFSAGGSGTYFTLKISRVEAEDLGVYFCSQTTHFPPTFGGGTKLEIKR	percentage of Annexin V positive and/or PI positive cells; COLO205; 1/18X (IgM 19.1) [11]: 22.9%; percentage of Annexin V positive and/or PI positive cells; DLD1; 1/2X (IgM 24.3) [11]: 50.6%; percentage of Annexin V positive and/or PI positive cells; DLD1; 1/6X (IgM 24.3) [11]: 42.3%; percentage of Annexin V positive and/or PI positive cells; DLD1; 1/18X (IgM 24.3) [11]: 38.9%; percentage of Annexin V positive and/or PI positive cells; H358; 1/2X (IgM 31.8) [11]: 50.7%; percentage of Annexin V positive and/or PI positive cells; H358; 1/6X (IgM 31.8) [11]: 49%; percentage of Annexin V positive and/or PI positive cells; H358; 1/18X (IgM 31.8) [11]: 46.9%; percentage of Annexin V positive and/or PI positive cells; Panc 02.03B; 1/2X (IgM 19.0) [11]: 46.7%; percentage of Annexin V positive and/or PI positive cells; Panc 02.03B; 1/6X (IgM 19.0) [11]: 28.7%; percentage of Annexin V positive and/or PI positive cells; Panc 02.03B; 1/18X (IgM 19.0) [11]: 24.5%; percentage of Annexin V positive and/or PI positive cells; SNU-16; 1/2X (IgM 30.0) [11]: 40.2%; percentage of Annexin V positive and/or PI positive cells; SNU-16; 1/6X (IgM 30.0) [11]: 37.2%; percentage of Annexin V positive and/or PI positive cells; SNU-16; 1/18X (IgM 30.0) [11]: 34.8%
